Measurements published in patent US20020137126A1 (Genentech, published 2002).

Assays:
CD4-IgG = CD4-IgG (human, UniProt P01730 26-205); test: immunoaffinity chromatography of BT20 conditioned medium on CD4-IgG-Protein A precolumn; SDS-PAGE, silver stain
Experimental: 200 ml of BT20 conditioned media, concentrated as described above from 12 liters and frozen, was thawed, centrifuged at 17,000 rpm in a Sorvall SS34 rotor, and filtered through a 0.45 μm filter to clarify the solution. The 200 ml was pumped through a 2.0 ml CD4-IgG—Protein A (CD4-IgG covalently linked to Protein A through IgG moiety) immunoaffinity precolumn and a 1.0 ml REK7-IgG - Protein A (REK7-IgG covalently linked to Protein A through IgG moiety) immunoaffinity column in tandem with a flow rate of 0.5 ml/min. All chromatography was carried out at 4° C. Following one complete passage of the media through both columns, the flow rate was reduced to 0.2 ml/min, and the media was recycled through both columns. Following the loading of the REK7-IgG column, the two column were separated from each other, washed with 10 column volumes of PBS, and then eluted with four separate washes of 100 mM sodium citrate, pH 3.0 (2 ml each for the CD4-IgG column and 1 ml each for the REK7-IgG column). The first two washes were allowed to immediately flow through the column whereas the last two were incubated for 15 minutes before collection. The eluates were brought to pH 7.4 by the addition of 50 mM potassium phosphate, and an aliquot of each was analyzed by sodium dodecycl sulfate (SDS)-polyacrylamide gel electrophoresis (PAGE). […]

[1] = biological target: T1, REK7, endogenous, on rat embryonic (E16) cortical neurons (rat, UniProt P54757 27-1005 at identity 0.97)); test: cell-based or functional assay
T1 chain: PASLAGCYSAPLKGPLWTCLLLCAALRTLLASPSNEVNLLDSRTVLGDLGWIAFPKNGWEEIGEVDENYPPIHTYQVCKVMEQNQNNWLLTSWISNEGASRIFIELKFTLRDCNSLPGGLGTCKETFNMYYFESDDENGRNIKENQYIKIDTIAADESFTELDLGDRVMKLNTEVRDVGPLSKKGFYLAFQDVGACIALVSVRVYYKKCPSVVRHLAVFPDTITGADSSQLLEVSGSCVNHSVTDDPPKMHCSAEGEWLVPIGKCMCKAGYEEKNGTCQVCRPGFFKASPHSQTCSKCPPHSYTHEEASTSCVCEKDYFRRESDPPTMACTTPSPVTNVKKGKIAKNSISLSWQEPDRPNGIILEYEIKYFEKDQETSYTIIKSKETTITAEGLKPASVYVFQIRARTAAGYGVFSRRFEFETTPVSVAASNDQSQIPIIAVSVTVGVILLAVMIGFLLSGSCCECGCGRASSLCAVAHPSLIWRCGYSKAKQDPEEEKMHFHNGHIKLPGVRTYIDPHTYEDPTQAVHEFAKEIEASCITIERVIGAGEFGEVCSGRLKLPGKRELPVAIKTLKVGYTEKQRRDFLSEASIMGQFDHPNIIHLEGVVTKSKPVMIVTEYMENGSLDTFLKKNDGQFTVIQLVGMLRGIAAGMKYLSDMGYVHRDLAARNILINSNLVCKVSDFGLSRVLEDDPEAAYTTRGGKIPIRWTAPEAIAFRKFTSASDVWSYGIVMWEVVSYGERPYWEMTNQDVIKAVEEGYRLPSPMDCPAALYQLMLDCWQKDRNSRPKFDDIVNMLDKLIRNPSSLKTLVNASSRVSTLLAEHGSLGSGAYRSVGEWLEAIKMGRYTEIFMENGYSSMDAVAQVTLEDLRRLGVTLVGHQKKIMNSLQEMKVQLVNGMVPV

B1: soluble AL-1 (purified, secreted form without the GPI membrane anchor) (ligand)
chain: QDPGSKAVADRYAVYWNSSNPRFQRGDYHIDVCINDYLDVFCPHYEDSVPEDKTERYVLYMVNFDGYSACDHTSKGFKRWECNRPHSPNGPLKFSEKFQLFTPFSLGFEFRPGREYFYISSAIPDNGRRSCLKLKVFVRPTNSCMKTIGVHDRVFDVNDKVENSLEPADDTVHESAEPSRGEN
notes: also called purified soluble AL-1; REK7 ligand from BT20 conditioned medium
With B1 the binding result (CD4-IgG) was “no binding” and the “tyrosine autophosphorylation of REK7 (immunoprecipitation with anti-REK7, anti-phosphotyrosine immunoblot)” value [1] was roughly 2 fold.
